Test results taken from publication PMC4169507.
Changes are numbered by the printed parent chain. Names may count otherwise.

B1: AafA, major subunit of AAF/II, on wild type EAEC 042 Q43A (protein)
chain: VAKTATSTITVVNFCDITITPATNRDVNVDRSANIDLSFTIRAPQRCADAGMRIKAWGEANHGQLLIKPQGGNKSAGFTLASPRFSYIPNNPANIMNGFVLTNPGVYQLGMQGSITPAIPLRPGLYEVVLNAELVTN
B2: AafA, major subunit of AAF/II, on wild type EAEC 042 T18I (protein)
chain: B1 chain with T18I, A43Q

Target: fibronectin, P02751
Assay: bacterial adherence to fibronectin-coated 96-well plates (colony counting)
Details: chain shown with the change; plates coated with 25 µg/ml of fibronectin; in the presence of arabinose; parent: 100; read off a plot

fibronectin, P02751, sequence (P02751 32-2477): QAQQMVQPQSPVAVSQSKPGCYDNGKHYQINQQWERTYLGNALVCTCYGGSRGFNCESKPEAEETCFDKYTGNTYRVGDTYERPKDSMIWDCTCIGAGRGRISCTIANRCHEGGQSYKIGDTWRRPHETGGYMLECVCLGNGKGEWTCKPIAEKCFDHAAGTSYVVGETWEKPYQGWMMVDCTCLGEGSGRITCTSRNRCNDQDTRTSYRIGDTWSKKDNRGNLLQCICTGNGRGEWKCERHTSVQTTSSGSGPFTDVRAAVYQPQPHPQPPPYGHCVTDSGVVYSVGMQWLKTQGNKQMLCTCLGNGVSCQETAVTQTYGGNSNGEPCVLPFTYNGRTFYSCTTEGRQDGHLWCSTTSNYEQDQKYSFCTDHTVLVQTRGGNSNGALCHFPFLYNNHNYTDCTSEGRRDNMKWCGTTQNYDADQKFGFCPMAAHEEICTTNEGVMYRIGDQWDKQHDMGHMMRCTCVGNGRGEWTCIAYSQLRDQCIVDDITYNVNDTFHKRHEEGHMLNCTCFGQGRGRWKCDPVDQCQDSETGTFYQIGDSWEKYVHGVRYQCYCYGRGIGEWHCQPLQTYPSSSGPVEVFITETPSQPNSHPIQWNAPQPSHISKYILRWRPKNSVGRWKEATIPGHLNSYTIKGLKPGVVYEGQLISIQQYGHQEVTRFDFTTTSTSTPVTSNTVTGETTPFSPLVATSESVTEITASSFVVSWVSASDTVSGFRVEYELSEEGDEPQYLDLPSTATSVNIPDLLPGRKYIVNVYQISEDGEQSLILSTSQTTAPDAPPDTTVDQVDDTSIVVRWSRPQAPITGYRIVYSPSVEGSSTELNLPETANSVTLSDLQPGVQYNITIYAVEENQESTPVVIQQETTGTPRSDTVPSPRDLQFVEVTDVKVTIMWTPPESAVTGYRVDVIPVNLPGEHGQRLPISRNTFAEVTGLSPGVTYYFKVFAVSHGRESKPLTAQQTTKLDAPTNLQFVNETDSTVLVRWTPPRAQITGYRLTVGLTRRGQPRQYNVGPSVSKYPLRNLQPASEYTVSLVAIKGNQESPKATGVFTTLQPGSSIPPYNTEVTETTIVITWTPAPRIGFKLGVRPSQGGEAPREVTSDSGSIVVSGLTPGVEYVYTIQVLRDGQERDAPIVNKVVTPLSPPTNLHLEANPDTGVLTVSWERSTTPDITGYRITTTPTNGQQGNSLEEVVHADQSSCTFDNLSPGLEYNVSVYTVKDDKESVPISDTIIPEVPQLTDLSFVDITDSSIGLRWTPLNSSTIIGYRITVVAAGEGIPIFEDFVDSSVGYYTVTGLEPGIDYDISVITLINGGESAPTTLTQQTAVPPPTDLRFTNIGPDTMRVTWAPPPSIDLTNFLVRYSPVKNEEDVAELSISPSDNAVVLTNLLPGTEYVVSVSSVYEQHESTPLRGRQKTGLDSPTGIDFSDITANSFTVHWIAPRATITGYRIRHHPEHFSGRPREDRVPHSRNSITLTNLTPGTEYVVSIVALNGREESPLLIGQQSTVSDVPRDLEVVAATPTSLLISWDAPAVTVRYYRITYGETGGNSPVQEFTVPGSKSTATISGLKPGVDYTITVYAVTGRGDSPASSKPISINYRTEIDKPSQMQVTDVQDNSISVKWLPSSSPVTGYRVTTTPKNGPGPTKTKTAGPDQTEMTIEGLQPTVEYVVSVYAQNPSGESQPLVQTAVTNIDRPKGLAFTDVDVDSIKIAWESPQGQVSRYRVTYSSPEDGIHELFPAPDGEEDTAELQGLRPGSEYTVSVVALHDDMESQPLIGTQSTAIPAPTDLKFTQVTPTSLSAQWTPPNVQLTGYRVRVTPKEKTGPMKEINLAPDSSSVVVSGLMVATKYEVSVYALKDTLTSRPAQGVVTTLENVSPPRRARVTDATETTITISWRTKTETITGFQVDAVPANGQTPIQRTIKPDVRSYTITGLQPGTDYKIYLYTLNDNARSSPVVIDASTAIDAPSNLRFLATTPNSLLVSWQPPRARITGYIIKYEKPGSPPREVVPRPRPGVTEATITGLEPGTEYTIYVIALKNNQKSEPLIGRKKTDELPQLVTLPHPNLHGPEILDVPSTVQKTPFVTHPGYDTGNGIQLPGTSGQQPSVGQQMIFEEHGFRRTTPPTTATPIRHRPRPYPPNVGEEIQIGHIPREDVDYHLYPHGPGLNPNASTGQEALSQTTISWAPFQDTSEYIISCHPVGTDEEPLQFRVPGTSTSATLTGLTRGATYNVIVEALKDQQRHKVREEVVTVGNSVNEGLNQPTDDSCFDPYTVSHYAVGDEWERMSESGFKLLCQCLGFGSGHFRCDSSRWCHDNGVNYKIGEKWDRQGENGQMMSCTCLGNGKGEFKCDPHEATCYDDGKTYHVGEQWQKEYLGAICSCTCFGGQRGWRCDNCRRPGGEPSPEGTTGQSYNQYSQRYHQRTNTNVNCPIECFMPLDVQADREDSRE

Row | Binder | percent of parent (% of binding to Fn)
1 | B1 | 110
2 | B2 | 65
